According to patent publication US20150344570A1 (published 2015):

B1: GpH7-A5/GpH7-B3 variant K334_08L/GpL16-k0 (antibody, human IgG1, kappa)
heavy 1: not shown
heavy 2: not shown
light: DIVMTQSPLSLPVTPGEPASISCQASESLVHSNRNTYLHWYLQKPGQSPQLLIYKVSNRFSGVPDRFSGSGSGTDFTLKISRVEAEDVGVYYCSQNTHVPPTFGQGTKVEIERTVAAPSVFIFPPSDEQLKSGTASVVCLLNNFYPREAKVQWKVDNALQSGNSQESVTEQDSKDSTYSLSSTLTLSKADYEKHKVYACEVTHQGLSSPVTKSFNRGEC
notes: also called He Ab K334_08L
B2: GpH7-A5/GpH7-B3 variant K334_09D/GpL16-k0 (antibody, human IgG1, kappa)
heavy 1: not shown
heavy 2: not shown
light: B1 light
notes: also called He Ab K334_09D
B3: GpH7-A5/GpH7-B3 variant K334_10E/GpL16-k0 (antibody, human IgG1, kappa)
heavy 1: not shown
heavy 2: not shown
light: B1 light
notes: also called He Ab K334_10E
B4: GpH7-A5/GpH7-B3 variant K334_13S/GpL16-k0 (antibody, human IgG1, kappa)
heavy 1: not shown
heavy 2: not shown
light: B1 light
notes: also called He Ab K334_13S
B5: GpH7-A5/GpH7-B3 variant K334_14T/GpL16-k0 (antibody, human IgG1, kappa)
heavy 1: not shown
heavy 2: not shown
light: B1 light
notes: also called He Ab K334_14T
B6: GpH7-A5/GpH7-B3 variant K334_15Y/GpL16-k0 (antibody, human IgG1, kappa)
heavy 1: not shown
heavy 2: not shown
light: B1 light
notes: also called He Ab K334_15Y
B7: GpH7-A5/GpH7-B3 variant K334_16H/GpL16-k0 (antibody, human IgG1, kappa)
heavy 1: not shown
heavy 2: not shown
light: B1 light
notes: also called He Ab K334_16H
B8: GpH7-A5/GpH7-B3 variant K334_18N/GpL16-k0 (antibody, human IgG1, kappa)
heavy 1: not shown
heavy 2: not shown
light: B1 light
notes: also called He Ab K334_18N
B9: GpH7-A5/GpH7-B3 variant K334_19Q/GpL16-k0 (antibody, human IgG1, kappa)
heavy 1: not shown
heavy 2: not shown
light: B1 light
notes: also called He Ab K334_19Q
B10: GpH7-A5/GpH7-B3 variant Q295_02A/GpL16-k0 (antibody, human IgG1, kappa)
heavy 1: not shown
heavy 2: not shown
light: B1 light
notes: also called He Ab Q295_02A
B11: GpH7-A5/GpH7-B3 variant Q295_10E/GpL16-k0 (antibody, human IgG1, kappa)
heavy 1: not shown
heavy 2: not shown
light: B1 light
notes: also called He Ab Q295_10E
B12: GpH7-A5/GpH7-B3 variant Q295_14T/GpL16-k0 (antibody, human IgG1, kappa)
heavy 1: not shown
heavy 2: not shown
light: B1 light
notes: also called He Ab Q295_14T
B13: GpH7-A5/GpH7-B3 variant S239_09D/GpL16-k0 (antibody, human IgG1, kappa)
heavy 1: not shown
heavy 2: not shown
light: B1 light
notes: also called He Ab S239_09D
B14: GpH7-A5/GpH7-B3 variant S267_02A/GpL16-k0 (antibody, human IgG1, kappa)
heavy 1: not shown
heavy 2: not shown
light: B1 light
notes: also called He Ab S267_02A
B15: GpH7-A5/GpH7-B3 variant S267_09D/GpL16-k0 (antibody, human IgG1, kappa)
heavy 1: not shown
heavy 2: not shown
light: B1 light
notes: also called He Ab S267_09D
B16: GpH7-A5/GpH7-B3 variant S298_14T/GpL16-k0 (antibody, human IgG1, kappa)
heavy 1: not shown
heavy 2: not shown
light: B1 light
notes: also called He Ab S298_14T
B17: GpH7-A5/GpH7-B3 variant S337_09D/GpL16-k0 (antibody, human IgG1, kappa)
heavy 1: not shown
heavy 2: not shown
light: B1 light
notes: also called He Ab S337_09D
B18: GpH7-A5/GpH7-B3 variant S337_10E/GpL16-k0 (antibody, human IgG1, kappa)
heavy 1: not shown
heavy 2: not shown
light: B1 light
notes: also called He Ab S337_10E
B19: GpH7-A5/GpH7-B3 variant S337_18N/GpL16-k0 (antibody, human IgG1, kappa)
heavy 1: not shown
heavy 2: not shown
light: B1 light
notes: also called He Ab S337_18N
B20: GpH7-A5/GpH7-B3 variant T335_07I/GpL16-k0 (antibody, human IgG1, kappa)
heavy 1: not shown
heavy 2: not shown
light: B1 light
notes: also called He Ab T335_07I
B21: GpH7-A5/GpH7-B3 variant T335_10E/GpL16-k0 (antibody, human IgG1, kappa)
heavy 1: not shown
heavy 2: not shown
light: B1 light
notes: also called He Ab T335_10E
B22: GpH7-B3 variant E269_01G/GpL16-k0 (antibody, human IgG1, kappa)
heavy: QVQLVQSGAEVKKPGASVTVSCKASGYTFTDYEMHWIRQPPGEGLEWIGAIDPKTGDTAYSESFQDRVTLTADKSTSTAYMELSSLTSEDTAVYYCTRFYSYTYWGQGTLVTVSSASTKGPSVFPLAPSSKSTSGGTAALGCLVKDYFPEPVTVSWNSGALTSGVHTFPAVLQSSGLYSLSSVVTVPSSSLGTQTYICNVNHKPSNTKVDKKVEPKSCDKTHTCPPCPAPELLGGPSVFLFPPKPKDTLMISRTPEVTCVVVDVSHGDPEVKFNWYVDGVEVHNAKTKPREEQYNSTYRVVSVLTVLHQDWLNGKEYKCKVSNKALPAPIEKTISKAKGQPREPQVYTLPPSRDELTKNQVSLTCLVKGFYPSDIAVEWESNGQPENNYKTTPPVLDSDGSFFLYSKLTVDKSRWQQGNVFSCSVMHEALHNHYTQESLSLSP
light: B1 light
notes: also called Ho Ab E269_01G
B23: GpH7-B3 variant A327_03V/GpL16-k0 (antibody, human IgG1, kappa)
heavy: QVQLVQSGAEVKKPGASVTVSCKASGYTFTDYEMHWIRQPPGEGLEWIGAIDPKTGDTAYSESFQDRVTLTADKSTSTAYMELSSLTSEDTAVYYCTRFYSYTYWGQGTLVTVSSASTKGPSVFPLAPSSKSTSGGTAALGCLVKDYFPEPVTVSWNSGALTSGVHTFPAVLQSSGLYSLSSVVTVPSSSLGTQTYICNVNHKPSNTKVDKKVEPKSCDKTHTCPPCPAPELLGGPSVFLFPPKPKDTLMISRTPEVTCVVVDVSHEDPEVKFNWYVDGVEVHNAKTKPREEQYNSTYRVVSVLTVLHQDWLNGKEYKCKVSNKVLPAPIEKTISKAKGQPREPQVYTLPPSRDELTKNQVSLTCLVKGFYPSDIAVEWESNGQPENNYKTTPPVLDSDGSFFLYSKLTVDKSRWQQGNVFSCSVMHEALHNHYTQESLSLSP
light: B1 light
notes: also called Ho Ab A327_03V
B24: GpH7-B3 variant A327_06M/GpL16-k0 (antibody, human IgG1, kappa)
heavy: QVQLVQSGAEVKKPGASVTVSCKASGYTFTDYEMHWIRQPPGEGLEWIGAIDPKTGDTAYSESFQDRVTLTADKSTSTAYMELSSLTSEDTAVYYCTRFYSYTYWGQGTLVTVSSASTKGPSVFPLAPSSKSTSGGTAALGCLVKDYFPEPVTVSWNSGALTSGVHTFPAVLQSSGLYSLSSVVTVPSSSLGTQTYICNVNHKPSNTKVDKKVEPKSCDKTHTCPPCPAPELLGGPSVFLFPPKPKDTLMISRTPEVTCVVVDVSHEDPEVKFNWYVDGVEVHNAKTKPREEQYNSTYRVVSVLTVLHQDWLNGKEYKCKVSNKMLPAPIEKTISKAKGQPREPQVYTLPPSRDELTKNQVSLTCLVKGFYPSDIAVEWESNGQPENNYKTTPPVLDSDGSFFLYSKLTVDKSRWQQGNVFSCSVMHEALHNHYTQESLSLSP
light: B1 light
notes: also called Ho Ab A327_06M
B25: GpH7-B3 variant A327_07I/GpL16-k0 (antibody, human IgG1, kappa)
heavy: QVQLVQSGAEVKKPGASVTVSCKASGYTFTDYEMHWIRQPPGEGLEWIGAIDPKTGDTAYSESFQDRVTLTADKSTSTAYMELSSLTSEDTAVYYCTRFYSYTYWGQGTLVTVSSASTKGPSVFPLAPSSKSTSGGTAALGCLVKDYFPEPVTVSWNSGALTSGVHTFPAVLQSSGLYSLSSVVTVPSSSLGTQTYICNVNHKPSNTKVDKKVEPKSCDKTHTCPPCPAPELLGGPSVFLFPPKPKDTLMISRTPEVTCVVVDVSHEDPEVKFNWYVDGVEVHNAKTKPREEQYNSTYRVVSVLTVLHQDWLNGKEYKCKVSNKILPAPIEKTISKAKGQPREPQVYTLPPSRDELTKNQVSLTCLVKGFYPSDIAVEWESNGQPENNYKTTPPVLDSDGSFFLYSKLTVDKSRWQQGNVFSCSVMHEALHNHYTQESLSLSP
light: B1 light
notes: also called Ho Ab A327_07I
B26: GpH7-B3 variant A327_09D/GpL16-k0 (antibody, human IgG1, kappa)
heavy: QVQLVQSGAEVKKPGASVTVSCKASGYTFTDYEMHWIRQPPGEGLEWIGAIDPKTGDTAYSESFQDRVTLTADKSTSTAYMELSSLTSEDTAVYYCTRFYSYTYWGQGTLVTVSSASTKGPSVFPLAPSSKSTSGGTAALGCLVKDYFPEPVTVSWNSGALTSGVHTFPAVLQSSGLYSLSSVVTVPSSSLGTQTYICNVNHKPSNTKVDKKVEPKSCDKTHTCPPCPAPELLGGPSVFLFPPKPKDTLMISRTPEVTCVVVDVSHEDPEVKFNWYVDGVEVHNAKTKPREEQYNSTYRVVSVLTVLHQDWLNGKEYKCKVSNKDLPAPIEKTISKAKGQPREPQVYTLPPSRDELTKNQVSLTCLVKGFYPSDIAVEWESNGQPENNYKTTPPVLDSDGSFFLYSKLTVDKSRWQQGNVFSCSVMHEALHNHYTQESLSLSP
light: B1 light
notes: also called Ho Ab A327_09D
B27: GpH7-B3 variant A327_10E/GpL16-k0 (antibody, human IgG1, kappa)
heavy: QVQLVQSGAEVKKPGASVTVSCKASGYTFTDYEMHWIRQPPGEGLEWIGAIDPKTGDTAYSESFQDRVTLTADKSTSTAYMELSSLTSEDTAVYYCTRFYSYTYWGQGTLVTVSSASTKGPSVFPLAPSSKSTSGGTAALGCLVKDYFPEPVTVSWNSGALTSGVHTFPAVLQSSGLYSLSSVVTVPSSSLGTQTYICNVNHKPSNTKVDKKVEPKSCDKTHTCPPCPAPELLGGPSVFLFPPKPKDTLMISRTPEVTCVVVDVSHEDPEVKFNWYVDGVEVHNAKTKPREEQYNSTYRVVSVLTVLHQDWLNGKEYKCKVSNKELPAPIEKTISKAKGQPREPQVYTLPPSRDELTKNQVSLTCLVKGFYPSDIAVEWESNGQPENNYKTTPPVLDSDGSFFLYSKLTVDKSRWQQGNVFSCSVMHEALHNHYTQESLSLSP
light: B1 light
notes: also called Ho Ab A327_10E
B28: GpH7-B3 variant A327_13S/GpL16-k0 (antibody, human IgG1, kappa)
heavy: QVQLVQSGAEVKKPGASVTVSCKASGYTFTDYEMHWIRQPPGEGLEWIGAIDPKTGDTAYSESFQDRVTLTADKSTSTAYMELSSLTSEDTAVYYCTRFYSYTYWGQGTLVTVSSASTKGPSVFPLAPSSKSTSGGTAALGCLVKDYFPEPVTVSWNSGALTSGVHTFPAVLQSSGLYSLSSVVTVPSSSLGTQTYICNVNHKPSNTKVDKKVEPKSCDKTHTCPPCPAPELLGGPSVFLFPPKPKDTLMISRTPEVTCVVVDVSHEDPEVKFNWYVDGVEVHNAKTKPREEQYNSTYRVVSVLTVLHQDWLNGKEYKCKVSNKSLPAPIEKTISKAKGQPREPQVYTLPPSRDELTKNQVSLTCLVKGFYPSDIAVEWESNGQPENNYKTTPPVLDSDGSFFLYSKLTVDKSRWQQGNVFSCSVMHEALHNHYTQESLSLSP
light: B1 light
notes: also called Ho Ab A327_13S
B29: GpH7-B3 variant A330_05P/GpL16-k0 (antibody, human IgG1, kappa)
heavy: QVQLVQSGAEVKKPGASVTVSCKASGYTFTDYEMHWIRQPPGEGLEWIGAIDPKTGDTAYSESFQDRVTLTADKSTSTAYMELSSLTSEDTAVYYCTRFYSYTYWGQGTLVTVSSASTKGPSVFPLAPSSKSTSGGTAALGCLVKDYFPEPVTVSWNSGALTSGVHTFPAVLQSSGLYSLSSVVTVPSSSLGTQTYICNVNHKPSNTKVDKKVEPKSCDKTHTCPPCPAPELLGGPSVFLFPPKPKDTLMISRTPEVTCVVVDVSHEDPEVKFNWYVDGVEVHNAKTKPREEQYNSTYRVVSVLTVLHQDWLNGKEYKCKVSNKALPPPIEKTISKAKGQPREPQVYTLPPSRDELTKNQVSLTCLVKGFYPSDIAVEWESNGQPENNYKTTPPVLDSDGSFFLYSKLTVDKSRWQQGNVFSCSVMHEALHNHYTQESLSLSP
light: B1 light
notes: also called Ho Ab A330_05P

molecular target: T1, FcγRIIIa extracellular domain with C-terminal His tag (human, UniProt P08637 17-208); assay: SPR Biacore, captured antibody, FcγR analyte, relative binding
T1 construct: extracellular domain; also called FcgRIIIa; 3a; not shown: His tag attached to the C terminus
T1 sequence (P08637 17-208): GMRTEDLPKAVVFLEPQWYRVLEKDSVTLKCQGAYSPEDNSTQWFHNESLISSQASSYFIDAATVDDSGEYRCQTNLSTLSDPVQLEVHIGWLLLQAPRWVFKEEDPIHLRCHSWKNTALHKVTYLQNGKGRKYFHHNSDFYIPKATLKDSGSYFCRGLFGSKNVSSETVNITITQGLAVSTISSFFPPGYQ
Description: (§1) Analysis of interaction between objective antibody and the FcγR was carried out using Biacore T100 (GE Healthcare). HBS-EP+ (GE Healthcare) was used as the running buffer, and the measurement temperature was set to 25° C. Chips produced by immobilizing the antigen peptide by the amine coupling method to a Series S Sencor Chip CM5 (GE Healthcare), or alternatively, chips produced by allowing preliminarily biotinylated antigen peptides to interact with and immobilize onto a Series S Sensor Chip SA (certified) (GE Healthcare) were used. Antibodies of interest were captured onto an antigen peptide-immobilized chip, and allowed to interact to each FcγR diluted with running buffer. To regenerate and repeatedly use the chip, the antibodies captured on the chip were washed off by reacting 10 mM glycine-HCl, pH 1.5.

Row | Binder | He/Con_3a
1 | B1 | 143 % of HeCon Ab GpH7-A5/GpH7-B3/GpL16-k0 (=100)
2 | B2 | 160 % of HeCon Ab GpH7-A5/GpH7-B3/GpL16-k0 (=100)
3 | B3 | 181 % of HeCon Ab GpH7-A5/GpH7-B3/GpL16-k0 (=100)
4 | B4 | 145 % of HeCon Ab GpH7-A5/GpH7-B3/GpL16-k0 (=100)
5 | B5 | 141 % of HeCon Ab GpH7-A5/GpH7-B3/GpL16-k0 (=100)
6 | B6 | 141 % of HeCon Ab GpH7-A5/GpH7-B3/GpL16-k0 (=100)
7 | B7 | 134 % of HeCon Ab GpH7-A5/GpH7-B3/GpL16-k0 (=100)
8 | B8 | 136 % of HeCon Ab GpH7-A5/GpH7-B3/GpL16-k0 (=100)
9 | B9 | 136 % of HeCon Ab GpH7-A5/GpH7-B3/GpL16-k0 (=100)
10 | B10 | 106 % of HeCon Ab GpH7-A5/GpH7-B3/GpL16-k0 (=100)
11 | B11 | 100 % of HeCon Ab GpH7-A5/GpH7-B3/GpL16-k0 (=100)
12 | B12 | 115 % of HeCon Ab GpH7-A5/GpH7-B3/GpL16-k0 (=100)
13 | B13 | 166 % of HeCon Ab GpH7-A5/GpH7-B3/GpL16-k0 (=100)
14 | B14 | 150 % of HeCon Ab GpH7-A5/GpH7-B3/GpL16-k0 (=100)
15 | B15 | 181 % of HeCon Ab GpH7-A5/GpH7-B3/GpL16-k0 (=100)
16 | B16 | 113 % of HeCon Ab GpH7-A5/GpH7-B3/GpL16-k0 (=100)
17 | B17 | 110 % of HeCon Ab GpH7-A5/GpH7-B3/GpL16-k0 (=100)
18 | B18 | 105 % of HeCon Ab GpH7-A5/GpH7-B3/GpL16-k0 (=100)
19 | B19 | 104 % of HeCon Ab GpH7-A5/GpH7-B3/GpL16-k0 (=100)
20 | B20 | 107 % of HeCon Ab GpH7-A5/GpH7-B3/GpL16-k0 (=100)
21 | B21 | 107 % of HeCon Ab GpH7-A5/GpH7-B3/GpL16-k0 (=100)

molecular target: T2, FcγRIa (human, UniProt P12314 16-292); assay: SPR (Biacore); Ho Ab relative to HoCon Ab = 100
T2 construct: extracellular domain; also called FcgRI; 1a
T2 sequence (P12314 16-292): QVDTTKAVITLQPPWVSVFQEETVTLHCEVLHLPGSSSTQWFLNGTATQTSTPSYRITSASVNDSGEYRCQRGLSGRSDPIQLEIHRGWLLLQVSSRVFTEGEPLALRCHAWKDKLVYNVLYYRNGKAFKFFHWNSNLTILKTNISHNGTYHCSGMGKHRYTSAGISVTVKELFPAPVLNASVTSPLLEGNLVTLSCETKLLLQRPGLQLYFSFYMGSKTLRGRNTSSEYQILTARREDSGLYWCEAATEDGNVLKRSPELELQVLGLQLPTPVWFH
Description: as §1

Row | Binder | Ho/Con_1a
22 | B22 | 97.4 % of control
23 | B23 | 94.4 % of control
24 | B24 | 93.1 % of control
25 | B25 | 95.5 % of control
26 | B26 | 102 % of control
27 | B27 | 98.8 % of control
28 | B28 | 86.1 % of control
29 | B29 | 84.4 % of control
